# Assay results: the DeepSol protein solubility set
# Assay: soluble on expression in E. coli; label from the status in PepcDB or PDB records
row,Sequence,soluble on expression in E. coli
1,MVTRITGLASGMDIDDIVSKLMQTERAPLDKLTQKKQTLEWQRDSYREVNSKIKELQDYMSKNTLTYPSTYQSKTVTSSNESVLTATGSVSAPNSSSTVEVASLATAATYKANNYTGYTQGDYNLAFNVVAPGETTAKTVNISVTSADTIDNVISKLNSSDLGVSAFKDKIWNGTEYVETIAFSSKATGAGGSIQAADSATADFMSGQLGFSLDADNKLTAYKEGTNAKVTINGFEMEKLTNNFTVNGVTYSIKNTTAATGPVTTSVSTDVDGIYNQIKEFVDKYNELVDSLNEKLKEEKYRDYTPLTSEQKEAMSDKEVELWEEKAKSGLLRNDSSISTGTNQMRTDFYTQVNADGKTYQLTEFGITTSSAYQLRGHLEINEEKLKAKIAEDPQGVANLFTSGTNDSNYSDKGIMKRITNTLRSTVKSIEAKAGNSTMGASSYSIGKNLNSISTEITDMQDRLNTIENRYYSKFSAMDSAIQKMNEQASYLSQLLVQ,not soluble
2,MNTGHHKVADTLIDFLHRQFPWVESKKIDFLSYCNELMEKMVSGAYLRWIRSHPASYHRVYKTFMYEESLRLEFVSFEPWLPYFEGKMKKMLEQERPDLIVCTHSFPSRILQQLKRKKVLAIPVVNVYTDFFMNSIWGKRFIDYHFVPHQEAKRELIVKHGIDERRIVVTGIPAAALEHHHHHH,soluble
3,MTNLNYQQTHFVMSAPDIRHLPSDTGIEVAFAGRSNAGKSSALNTLTNQKSLARTSKTPGRTQLINLFEVADGKRLVDLPGYGYAEVPEEMKRKWQRALGEYLEKRQSLQGLVVLMDIRHPLKDLDQQMIEWAVDSNIAVLVLLTKADKLASGARKAQLNMVREAVLAFNGDVQVETFSSLKKQGVDKLRQKLDTWFSEMQPVEETQDGE,soluble
4,MTQLPPAIFLMGPTAAGKTDLAIELTKVLPCELISVDSALVYRGMDIGTAKPSRELLAQFPHRLIDILDPAESYSAADFRTDALAAMADITARGKIPLLVGGTMLYYKALLEGLADMPAADPQVRAELEEEAARLGWQALHDQLAAVDPESAARIHPNDPQRLTRALEVYRVSGLTMTAHRQRQLAQSTEAGASGRSQLPYTVANLAIAPANRQVLHQRIAQRFTQMLEQGFIDEVVALRSRSDLHAGLPSIRAVGYRQVWDHLDGKLTSAEMQERGIIATRQLAKRQFTWLRSWADLQWLDSLDCDNLPRALKYLGTISILSLEHHHHHH,not soluble
5,MDRVDCIVIGAGVVGLAVARKLAQAGREVIVLEEAEAIGTITSSRNSEVIHAGIYYRAGSWMARMCVNGKHALYRYCGERGIPHKNCGKLIVATNAKETEKLQSIKAHAEANGVLDMQLLTGEAARALEPALACDAALLSPSTGIIDSHAYMLSLRGEAEEAGAAFAFHTPLIRAKAAAGMIEVEAGGEAPMALQCSLLVNAAGLAATTVARNIDGMPLDRIPPAYLAKGNYFSCNAKAPFSHLIYPVPEPGGLGVHLTLDMAGQARFGPDVEWIETINYEVDPSRAERFYPAIRRYWPTLPDGALMPSYSGIRPKIVPPAVATQDFLMQGPRDHGVAGLINLFGIESPGLTSSLAIADHVAELANILEHHHHHH,not soluble
6,GHMREMLQVERPKLILDDGKRTDGRKPDELRSIKIELGVLKNADGSAIFEMGNTKAIAAVYGPKEMHPRHLSLPDRAVLRVRYHMTPFSTDERKNPAPSRREIELSKVIREALESAVLVELFPRTAIDVFTEILQADAGSRLVSLMAASLALADAGIPMRDLIAGVAVGKADGVIILDLNETEAMWGEADMPIAMMPSLNQVTLFQLNGSMTPDEFRQAFDLAVKGINIIYNLEREALKSKYVEFKEEGV,soluble
7,MGSDKIHHHHHHMDCFYDYHKSLSPDEYVWDYEEFLYYGSDKFIKDVFVDGGVDIALSQPAYLQFFFREPFGNTNEFGTMALKYPYRFIIGTRWDPREGEEGKRQLEEDVRKYRVKPWQMRHVKLYTAEWKEVNGGISRGWRLDSPQAFEFLEFNRELGIDIQVPHKGPTVWPLSKDAFDVHDVDTAASSFPELRFVVTHVGLPRIDDFSWIGVQDKNVYAGLAVATAFIRKRPKYFAEIMAELLFWLGPDRIIFGSDYAIWHPKWIIEDFIKFELPRDLESEYGVELTLENKKKILGENAARLWGIDVEEAKKAVREDQIASRYGAKPRVFKVEG,not soluble
8,LTDDPGSGFTTVWNAVVSELNGDPKVDDGPSSDANLSAPLTPQQRAWLNLVQPLTIVEGFALLSVPSSFVQNEIERHLRAPITDALSRRLGHQIQLGVRIAPPATDEADDTTVPPSENPATTSPDTTTDNDEIDDSAAARGDNQHSWPSYFTERPHNTDSATAGVTSLNRRYTFDTFVIGASNRFAHAAALAIAEAPARAYNPLFIWGESGLGKTHLLHAAGNYAQRLFPGMRVKYVSTEEFTNDFINSLRDDRKVAFKRSYRDVDVLLVDDIQFIEGKEGIQEEFFHTFNTLHNANKQIVISSDRPPKQLATLEDRLRTRFEWGLITDVQPPELETRIAILRKKAQMERLAVPDDVLELIASSIERNIRELEGALIRVTAFASLNKTPIDKALAEIVLRDLIADANTMQISAATIMAATAEYFDTTVEELRGPGKTRALAQSRQIAMYLCRELTDLSLPKIGQAFGRDHTTVMYAQRKILSEMAERREVFDHVKELTTRIRQRSKR,soluble
9,MTLSSKTTKKNTSQHKHPRYVDCDNCSMRAICQPIGADNQAIDLTSNYLTRRVEVSTEQSSSLPLNQSAGVALFEQASPLTAIFAVCSGTFKLCQKNDDGLDRIVGFRFPGELIGEDALFLEVYNYSAVALGDNSVCEVYVDSLSACSQLAPELQQNLIQLLTKQSYEQQRNAHAITGKKSADCLLAAFLLNICQRNAKHSGNETEIELTISRQDIASFLGMRRETLSRLLSKFQHEQLISLNGKQLSLLSLNHLKQLSNQ,not soluble
10,MGSDKIHHHHHHMSLRKNLALGSSTVLLTAVLSGCVSLDERSTDTSTENVTTVTATLTSTAAAEPTTRTTVQSATEASTTAPVQCNLDPRTSDFGPYLAQSRTPVGELAGSADSVVQVPDWFYHFQMGDNGYDSCSKLSYVVLNGSNGDAERSTGTGAAIADVVVLFIDGHMVARPAPFEMKTVESVTRVSDSEIQVVYGHAGRSTAEGVTDYFTFNFFVDNGVLSGRGDLPEHIDTHMRLYLL,not soluble
11,MIRSSKRSLSRDLVRFVQYVDDCVVKRYGFVVKSGSGIKLNGKKPQGFGTSSEDEDNNADMSDDSEEVPVSSIDKRKVASSKSRTGVVIEGDVVKPPVMKFVVLDKNRNVCQVYGNRHDLTSSAEDDSVDGDEETLVMSRDNGRKQSLKARNGVSVKGGGGKTTRVVKTVSFDENGNVCKVYGDTHDLTSSAEDDDSVDVGEETLVMCRDEGKRRSSKTGSRVLVKGSGGKTNRVVKTVSFDENGNVYKAYGDTPESSIISEEDDSTSGSNEGNGEEKGNVNEVEEIKYVPKENESFEEEEEKETDSENEVSSSEGSEGDKRVTKKEVQHQKGSLMFSPPLPLKMEP,soluble
12,KYDNKEFSSAVGHYGVGNGPYFMIPGYGPYTLREVTDTVDGMYLPLSYLNIWAGLGKWALEGLEKRALLVPQEAQLDSSPDPYVLTRDVYIQRQNFKAEIDTVEEVNPEEEALLDEYLDEF,not soluble
13,MAHHHHHHMLLAIVRDLLQLFRPYAAALHPETTQVWFSVRDTPLSWLYPAGAVKDYVNECVREERAAHLSASSPSSPPLSSAAALLQSHLCTILSEPLELSFHIHSLTKGSSLARTVPLYINYDRLEEHIRMEVKQAHKAAYTVLYGNYAIYQREAESALQAAVGLALYRPFDAAAQEQLQQQRYRDPGSSGSGGAGVGNGGYSSSNSPGGGYSAPFAFTSPYLLVEYQQLLRGLLTPRPHVAYLIRIGFPFAYRGAAGRSESGYLQYDAHRVSAAPALALSVTTTEAAAAPTMEPEQLPLGLLLWRLFRAPVLRWKAQQLQQHPTDNTSPSTAAHASATVLSEVERTYQQLLRTLAPYYADPPRCATDGLEQQEPLMTSTPPEPPAWAAWERAMVQAFMRDYEERPEKCGLGFEFAEAAATSAASPNAVRRVRFMVQGIQPPLTTPGSFLEAHLSSSDRAIFVTVQV,not soluble
14,MFTQLALLSVLAVFVAQATMNLPSQEQYNAELKSAGMSQAGIDGLNVLSQKFVSQYPVVQANKEAADKFLAEYTEEAQNYVKSMSPEDQKIYAESLKKYGLA,not soluble
15,MSMQEMVTISIVTYNSRYIFNVLDQLKAELGTDSIYDIHIYDNHSETAYLEKLTTYEPFITIHRAEENQGFGHGHNQVLFNASTKYAIIFNPDVLVTKDVLDRLLNRIKIDKNIAVVSPKVLNEDGTTQYLVRQKLDVFDYMLRFIPFQFVKKIFDKRLSIYECRDLSDTETTDIKMGSGCFMLIDREKFVEIGGFDERFFMYFEDNDLCLRFGKAGYRILYTPFETVVHMYEKGAHKSRKLFKIFMQSMGKFFNKWGWRFFLEHHHHHH,soluble
16,MPKLGIKPLRRQQLIDATLRSISERGLQNTTIVSISKIAGMSSGIISHYFGGKKELIEETVSYLLDQLQQSLLERITEENPPAHIRLNLIVEANFTEFQRSLLATKTWLSFWAMSMHDPAMARLQSINSNRLHSNLLFSFKELLDPESAANAAKQTAAMIDGFWLRSALSENSEQEFIAAELLCKKFINDVIKQEISNASN,not soluble
17,MGSDKIHHHHHHMHCGIDYGTSNSSLGIVKDGKVVQAELERNSVYLPSAIYRAFPEHELNDDIASRSIRQQLGSAQGLLYGSEAIEAYVRHPGDGLFMKSPKVFLGSDLSKDQMDFFQIVIAKMMTHILERAREFYGQELRQAVIGRPIRYHGIRGEEGDKQALAIMEHAAAGAGLEEVVFMYEPLAAALDYEQCLDRDEVLLVVDVGGGTTDCSVVKVGPSYRDKRERSDDLLAYSGNRIGGVDLDINLGWHTIMPLFGRGTDELHNKAFDAITVNSIPSQQAFYSRFEMPVHAQADTVRERLYRVWLDKLSSHLVRSAELAKIELSRRTSHVLELGYVEDGLEVHVSREDFRQAIARSAEKIRQVIDDARQASASRPDKIYLTGGSAVSPVIQQVIREVVGDAVPFVSGNMHGSVACGLSVFANRHFA,not soluble
18,MGSDKIHHHHHHMSTKHSKAAAEFLKNKKQAAWHDETLWLVRAKRDRLSKEVPEWEELRNMACATKLYSNSHLDELLVEFENNARANGAHVYWAKDADEYCNIVYNILNQHGVKHFIKSKSMLAEECELNPFLESKGIEVVESDLGERILQLMHLKPSHIVLPAIHIKREQVGELFEREMGTEKGNFDPTYLTHAARKNLRQKFIHAEAAMTGANFAVASTGEIVVCTNEGNADMGTSQPKLQIAAFGMEKIVPDRESLGVFTRLLARSATGQPITTYTSHYRKPREGGELHIIIVDNGRSKILADPKHIKTLNCIRCGACMNTCPVYRRSGGYSYTYFIPGPIGINLGMLKAPLHYYDNVSACSLCYSCSFVCPAKVDLAEQIYLWRQDLDKLGKADRMKKVMSGGMEFMMKRPSIFNMALKWAPLVNGVPRFLIYNGLNDWGKGREMPKFAKESFNEMWKKGKVK,not soluble
19,MSLLGGPGIELFRRLVEEYEREHDVPMADIAAALAVQCRGGEAFLMAPDPPLSRRNRDQRRDRPQRPKRRPDLTTYRVAVGKRHKIGPGAIVGAIANEGGLHRSDFGQIRIGPDFSLVELPAKLPRATLKKLAQTRISGVLIDLRPYRPPDAARRHNGGKPRRKHVGEGHHHHHH,soluble
20,MAVRKLWKTVVQLFSKSKSEECNTEAGTMEVSFLKYGVRGLNADCSYVKSQCIKLSECECLYTFASDVCKEDFHNSEEMKVFVVQHSQEMVDGTDLFVHAEESV,not soluble
21,MDAYLDYISGIWSKIDKKFHDQDISAKVAILQLVARPYYYWIQENPAQEKPVVEESQPRKQDNLREITSKYGDALQVDSDTVKIVKRLNTDEFNKLKEDLRQLGFLYDAQLRGFKKKQ,not soluble
22,TGKIDGILSIGVDVTERVKWRKQIEASGARLKSMIDQTPAPTLVLMGDNLVIEQVNTSMLKLLGHEENIVGIPLLTLMPELKGQYIWEQVEKVYREGIPFDQSEVRVSHKRTGMMEDYYYNIAYRPLKED,not soluble
